Measured values from publication PMC6393291 (Nucleic Acids Research, 2018).

Target: T1, MSL2-FLAG (D. melanogaster, UniProt P50534 1-773)
T1 sequence (looked up): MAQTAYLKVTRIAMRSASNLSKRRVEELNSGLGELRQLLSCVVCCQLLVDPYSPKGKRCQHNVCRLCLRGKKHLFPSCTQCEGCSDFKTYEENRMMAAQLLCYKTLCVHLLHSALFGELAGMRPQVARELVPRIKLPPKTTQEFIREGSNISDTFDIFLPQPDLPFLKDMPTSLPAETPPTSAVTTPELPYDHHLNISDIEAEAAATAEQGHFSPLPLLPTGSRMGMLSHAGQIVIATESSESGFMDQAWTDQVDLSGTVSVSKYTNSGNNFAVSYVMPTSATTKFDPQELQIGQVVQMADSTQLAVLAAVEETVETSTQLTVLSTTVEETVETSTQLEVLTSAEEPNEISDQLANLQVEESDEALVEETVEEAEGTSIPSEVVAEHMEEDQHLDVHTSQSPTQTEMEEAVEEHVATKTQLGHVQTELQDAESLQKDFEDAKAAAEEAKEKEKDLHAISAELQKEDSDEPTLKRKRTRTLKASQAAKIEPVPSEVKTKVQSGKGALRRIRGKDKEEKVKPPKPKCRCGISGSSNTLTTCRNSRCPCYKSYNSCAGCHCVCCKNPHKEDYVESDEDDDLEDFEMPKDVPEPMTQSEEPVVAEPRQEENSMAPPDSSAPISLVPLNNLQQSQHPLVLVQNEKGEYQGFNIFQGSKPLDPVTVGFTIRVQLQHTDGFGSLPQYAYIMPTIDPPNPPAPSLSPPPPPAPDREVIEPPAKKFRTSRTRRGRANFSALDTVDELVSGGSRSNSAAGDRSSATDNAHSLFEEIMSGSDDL
Assay: co-IP

B1: CLAMP-FLAG (natural protein, D. melanogaster, UniProt Q9V9N4 1-561, looked up)
chain: MEDLTKNIIFTNAINGQPATIQYQTADGTILKQPKIEGQKTEQQPTFYYTTNGNGGTVNLAQLATTDDNKTCYIAQPVGGYNYALVNGMPLNQGAALGIATVDAQGRIQIVNQNKPIAANTISNISFKCDVCSDMFPHLALLNAHKRMHTDGEQQQQQQHNAQAGGDSIAVVSAQGLVQAQNIIGNGQMGQIQIVSSDTLEPVQQSVMQQQQHESKASKCINCGSSMLQQSKRKGPKQVRCESCMQAEQTAQQQQQLFVAQDGQMAHPVQIISTTPQAQAQLQQIVAAQTGGTTPKREASSGSGHHPVKKRNSQQMTKCQKCNGSGVVLVGQHSHASHSGVGGSVKQSVTVKTENPSKPFSCNICGGLFSRYSSLWSHKKLHSGEKNYKCSICGLAFAKAVYLKNHARIHTGEKPYKCQTCGMQFSQSPHLKNHERTHSGERPYVCGVCDKGFARHATLWNHRRIHTGEKPYKCEICGSAFSQAAHLKNHAKVHSGEKPYKCEICSAAFADRFALKRHRGIHQKYGQTAPRQTSSDGMIVHKQEIPDMEDEAQQEVIIGGL
- binding result: binds
